Results on one substance are retold here after paper PMC11640315.

The assay deals with Retinoid X receptor of turbot, HA-tagged (pcDNA3.1-RXR-HA) (turbot (Scophthalmus maximus)).

Substance “Farnesoid X receptor of turbot, Flag-tagged (pcDNA3.1-FXR-Flag)” came in with an activity of the SHP promoter, dual-luciferase reporter assay in HEK293 cells; co-transfection of FXR and RXR plasmids against the FXR plasmid of 3 times.
